In publication PMC4072508, “Genome-Wide Prediction and Validation of Peptides That Bind Human Prosurvival Bcl-2 Proteins” (PLoS Computational Biology, 2014) one finds SPOT signal as a fraction of Bim BH3's signal on the same receptor and array data, which are given here for 19 molecules.

B1: INADL (peptide)
chain: GFANHDVVEVLRNAGQVVHLTLVRRK
B2: DMD (peptide)
chain: EERAQNVTRLLRKQAEEVNTEWEKLN
B3: VCL (peptide)
chain: KRALIQCAKDIAKASDEVTRLAKEVA
B4: MFI2 (peptide)
chain: PVGYLVESGRLSVMGCDVLKAVSDYF
B5: MOV10L1 (peptide)
chain: FSSDAVTSRVLLNVGQEVIAVVEENK
B6: GEMIN4 (peptide)
chain: FVGCEFLHHLLREWGEELQAVLRSSQ
B7: USP36 (peptide)
chain: AIKPVSFIRDLKKIARHFRFGNQEDA
B8: NCKAP1 (peptide)
chain: RIEERKAIIGLYNYAHEMTHGASDRE
B9: PSMC1 (peptide)
chain: LGDGPKLVRELFRVAEEHAPSIVFID
B10: FES (peptide)
chain: TSQTEGLSRLLRQHAEDLNSGPLSKL
B11: PLCD4 (peptide)
chain: TIRNGHDSELLRSLAEELPLEQGFTI
B12: NLRP12 (peptide)
chain: CLKRCRSAQVLHLYGATYSADGEDRA
B13: CDH23 (peptide)
chain: AEHEDDLPENLSEIADLWNSPTRTHG
B14: RAPGEF2 (peptide)
chain: FEKLRMIAKEIRHVGRMASVNMDPAL
B15: NRN1L (peptide)
chain: DTIYQGFAECLIRLGDSMGRGGELET
B16: DMD (peptide)
chain: IGQRQTVVRTLNATGEEIIQQSSKTD
B17: AGAP3 (peptide)
chain: RAIPIKQGILLKRSGKSLNKEWKKKY
B18: MTA3 (peptide)
chain: FYRRRDISNTLIMLADKHAKEIEEES
B19: APBA1 (peptide)
chain: EVKQSMSSQSLDKAAEDMPEAEQDLE

Chain of Bcl-xL, Q07817 (Q07817 1-209): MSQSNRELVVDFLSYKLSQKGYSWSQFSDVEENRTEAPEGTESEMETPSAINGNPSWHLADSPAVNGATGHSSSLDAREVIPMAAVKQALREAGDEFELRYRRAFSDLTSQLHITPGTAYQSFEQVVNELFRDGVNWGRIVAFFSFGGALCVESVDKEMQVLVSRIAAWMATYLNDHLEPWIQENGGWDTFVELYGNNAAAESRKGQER

For one experiment, the target named is T1, Mcl-1, Q07820.
T1 chain: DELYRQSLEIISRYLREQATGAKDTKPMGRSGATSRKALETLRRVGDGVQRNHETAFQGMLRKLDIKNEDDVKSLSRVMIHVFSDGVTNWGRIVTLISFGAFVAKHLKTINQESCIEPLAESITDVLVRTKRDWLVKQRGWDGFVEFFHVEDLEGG
Put plainly: peptide SPOT array, c-Myc-tagged receptor at 1 uM or 100 nM, anti-c-Myc-Cy3.
B1 registered an SPOT signal as a fraction of Bim BH3's signal on the same receptor and array of 0.34.
The same measure, in the same setting: the result for B2 reads 0.02; that for B3, 0.03; that for B4, 0.03.
The same measure, in the same setting: as for B5, the figure is 0.02; as for B6, 0.04.
Same read-out and setting: as for B7, the figure is 0.39.
Consider B8, for which the SPOT signal as a fraction of Bim BH3's signal on the same receptor and array was found to be 0.03.
Turning to B9, the SPOT signal as a fraction of Bim BH3's signal on the same receptor and array came to 0.04.
The same measure, in the same setting: as for B10, the figure is 0.02; as for B11, 0.02.
The same measure, in the same setting: the result for B12 reads 0.06.
B13: the SPOT signal as a fraction of Bim BH3's signal on the same receptor and array was 0.02.
The same measure, in the same setting: the result for B14 reads 0.13.
The same measure, in the same setting: the result for B15 reads 0.17; that for B16, 0.02.
In turn, B17 yielded an SPOT signal as a fraction of Bim BH3's signal on the same receptor and array of 0.35.
B18 had an SPOT signal as a fraction of Bim BH3's signal on the same receptor and array of 0.07.
Same read-out and setting: the result for B19 reads 0.02.

The next experiment has as its target T2, Bfl-1, Q16548.
T2 chain: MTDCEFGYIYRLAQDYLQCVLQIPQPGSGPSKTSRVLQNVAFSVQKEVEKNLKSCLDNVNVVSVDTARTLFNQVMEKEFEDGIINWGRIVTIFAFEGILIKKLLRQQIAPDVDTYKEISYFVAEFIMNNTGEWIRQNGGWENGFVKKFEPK
Described as above.
Regarding B1, the SPOT signal as a fraction of Bim BH3's signal on the same receptor and array is 0.38.
Same read-out and setting: as for B2, the figure is 0.04; as for B3, 0.08; as for B4, 0.04.
On the same count and under the same terms, as for B5, the figure is 0.02; as for B6, 0.02.
On the same count and under the same terms, the result for B7 reads 0.65.
B8 came in with an SPOT signal as a fraction of Bim BH3's signal on the same receptor and array of 0.03.
The same measure, in the same setting: as for B9, the figure is 0.03; as for B10, 0.05.
B11 came in with an SPOT signal as a fraction of Bim BH3's signal on the same receptor and array of 0.02.
Still for that read-out and setting: the result for B12 reads 0.11; that for B13, 0.01.
On the same count and under the same terms, the result for B14 reads 0.38; that for B15, 0.02; that for B16, 0.03.
On the same count and under the same terms, as for B17, the figure is 0.52; as for B18, 0.08; as for B19, 0.02.

Another experiment concerns the target T3, Bcl-w, Q92843.
T3 chain: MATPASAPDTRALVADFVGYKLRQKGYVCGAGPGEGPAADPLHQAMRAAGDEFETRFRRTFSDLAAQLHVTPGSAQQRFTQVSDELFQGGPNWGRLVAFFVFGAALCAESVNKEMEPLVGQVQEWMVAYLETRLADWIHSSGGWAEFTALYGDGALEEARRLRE
The description is as above.
B1 gave an SPOT signal as a fraction of Bim BH3's signal on the same receptor and array of 0.31.
Take B2: the SPOT signal as a fraction of Bim BH3's signal on the same receptor and array was determined as 0.04.
In turn, B3 returned an SPOT signal as a fraction of Bim BH3's signal on the same receptor and array of 0.15.
B4 returned an SPOT signal as a fraction of Bim BH3's signal on the same receptor and array of 0.02.
On the same count and under the same terms, as for B5, the figure is 0.02; as for B6, 0.02; as for B7, 0.75.
On the same count and under the same terms, the result for B8 reads 0.03; that for B9, 0.02; that for B10, 0.09.
Still for that read-out and setting: as for B11, the figure is 0.01; as for B12, 0.07.
B13 registered an SPOT signal as a fraction of Bim BH3's signal on the same receptor and array of 0.02.
B14 displayed an SPOT signal as a fraction of Bim BH3's signal on the same receptor and array of 0.18.
Still for that read-out and setting: as for B15, the figure is 0.03; as for B16, 0.02.
Same read-out and setting: as for B17, the figure is 0.64.
The same measure, in the same setting: the result for B18 reads 0.09; that for B19, 0.02.

Another experiment concerns the target Bcl-xL, Q07817. The experiment is described as above.
As to B1, the SPOT signal as a fraction of Bim BH3's signal on the same receptor and array is 0.33.
Still for that read-out and setting: as for B2, the figure is 0.04; as for B3, 0.12; as for B4, 0.04.
The same measure, in the same setting: the result for B5 reads 0.03; that for B6, 0.04; that for B7, 0.61.
Regarding B8, the SPOT signal as a fraction of Bim BH3's signal on the same receptor and array worked out at 0.04.
Still for that read-out and setting: the result for B9 reads 0.04; that for B10, 0.05.
In turn, B11 came in with an SPOT signal as a fraction of Bim BH3's signal on the same receptor and array of 0.02.
Molecule B12 yielded an SPOT signal as a fraction of Bim BH3's signal on the same receptor and array of 0.19.
The same measure, in the same setting: as for B13, the figure is 0.02.
Still for that read-out and setting: as for B14, the figure is 0.19.
The molecule B15 showed an SPOT signal as a fraction of Bim BH3's signal on the same receptor and array of 0.035.
B16 registered an SPOT signal as a fraction of Bim BH3's signal on the same receptor and array of 0.03.
Same read-out and setting: as for B17, the figure is 1.42.
The same measure, in the same setting: as for B18, the figure is 0.15; as for B19, 0.02.

The target of the next experiment is Bcl-2, P10415. The experiment is described as above.
Chain of Bcl-2, P10415 (P10415 1-217): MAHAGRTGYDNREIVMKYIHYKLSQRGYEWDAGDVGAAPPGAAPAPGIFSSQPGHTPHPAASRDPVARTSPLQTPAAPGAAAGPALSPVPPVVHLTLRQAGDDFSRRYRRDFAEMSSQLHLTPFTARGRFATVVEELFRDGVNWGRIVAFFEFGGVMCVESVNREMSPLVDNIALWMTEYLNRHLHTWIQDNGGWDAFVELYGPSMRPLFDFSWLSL
As for B1, the SPOT signal as a fraction of Bim BH3's signal on the same receptor and array was found to be 0.12.
Same read-out and setting: as for B2, the figure is 0.01; as for B3, 0.03.
On the same count and under the same terms, the result for B4 reads 0.01; that for B5, 0.01; that for B6, 0.01.
The same measure, in the same setting: the result for B7 reads 0.19.
Take B8: the SPOT signal as a fraction of Bim BH3's signal on the same receptor and array came out at 0.02.
Same read-out and setting: the result for B9 reads 0.01; that for B10, 0.01.
Still for that read-out and setting: the result for B11 reads 0.01; that for B12, 0.05.
B13 registered an SPOT signal as a fraction of Bim BH3's signal on the same receptor and array of 0.01.
Same read-out and setting: the result for B14 reads 0.1; that for B15, 0.01; that for B16, 0.01.
On the same count and under the same terms, as for B17, the figure is 0.19; as for B18, 0.03.
In turn, B19 displayed an SPOT signal as a fraction of Bim BH3's signal on the same receptor and array of 0.01.
